Data taken from PMC5524322, “Species A rotavirus NSP3 acquires its translation inhibitory function prior to stable dimer formation” (PLoS ONE, 2017).

Biological target: the molecule itself
Experiment: non-dissociating Western blot (WB-ND); lysates of vaccinia-infected BSC-1 cells (18 hpi) mixed with 2x non-dissociating sample buffer (62.5 mM Tris-HCl pH 6.8, 0.8% SDS, 20% glycerol), 30 min on ice, not boiled; 12% SDS-PAGE in a cold room; blot with anti-NSP3 rat serum; stable dimer band (68 kDa) told apart from monomer/dimerization intermediate band (34 kDa); cells with MG132 or DMSO, in one experiment with …

B1: wild type NSP3 (non-structural protein 3) of simian species A rotavirus strain RRV (natural protein)
chain: MESTQQMASSIINSSFEAAVVAATSTLELMGIQYDYNEVYTRVKSKFDLVMDDSGVKNNLIGKAITIDQALNGKFSSAIRNRNWMTDSRTVAKLDEDVNKLRIMLSSKGIDQKMRVLNACFSVKRIPGKSSSIVKCTRLMKDKLERGEVEVDDSFVEEKMEVDTIDWKSRYEQLEKRFESLKHRVNEKYNHWVLKARKVNENMNSLQNVISQQQAHINELQMYNNKLERDLQSKIGSVVSSIEWYLRSMELSDDVKSDIEQQLNSIDQLNPVNAIDDFESILRNLISDYDRLFIMFKGLLQQCNYTYTYE
notes: also called wtNSP3; RRV NSP3
stoichiometry N: 2

B2: NSP3 W170A of rotavirus strain RRV (natural protein)
chain: MESTQQMASSIINSSFEAAVVAATSTLELMGIQYDYNEVYTRVKSKFDLVMDDSGVKNNLIGKAITIDQALNGKFSSAIRNRNWMTDSRTVAKLDEDVNKLRIMLSSKGIDQKMRVLNACFSVKRIPGKSSSIVKCTRLMKDKLERGEVEVDDSFVEEKMEVDTIDAKSRYEQLEKRFESLKHRVNEKYNHWVLKARKVNENMNSLQNVISQQQAHINELQMYNNKLERDLQSKIGSVVSSIEWYLRSMELSDDVKSDIEQQLNSIDQLNPVNAIDDFESILRNLISDYDRLFIMFKGLLQQCNYTYTYE
notes: also called vNSP3_(W170A)
fold lower accumulation of stable dimers than NSP3_(Y192A): 16 fold | fold lower accumulation of stable dimers than wtNSP3: 9 fold
